Measured values: article PMC8390535

Target: sfGFP-POX10 (superfolder green fluorescent protein POX10 fusion protein)
Assay: SPR

- Kd: 0.074 µM
Substance: PXDN-con4 (human recombinant peroxidasin consisting of the four immunoglobulin domains and the peroxidase domain) (domain or fragment)
